Results taken from the nanobody polyreactivity screen of Harvey et al. (2022).

Assay: yeast display, Sf9 membrane polyspecificity reagent, FACS + sequencing; frameworks hold sequencing errors
Summary of the method: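 Galactose-induced (36–48 hours) yeast carrying a synthetic nanobody display library were exposed to 10% biotinylated, detergent-solubilized Sf9 membrane reagent at 4 °C for 1 hour. FACS followed streptavidin microbead enrichment, using low and high (top ~1%) gates for expression (anti-HA) and reagent binding (streptavidin). Colony PCR, MiSeq 2 × 250 sequencing and CDR-length filtering followed. Labels for polyreactivity reflect the gate of origin.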

Row | Sequence | polyreactivity (PSR sort gate)
1 | QVQLVESGGGLVQAGGSLRLSCAASGSTFGANAMGWYRQAPGKEREFVAAISRSGVRTYYADTVKGRFTMSRDNAKITVYFQMNSLKPEDTAVYYCAADGYWWTYTRYDYWGQGTQVTVSS | low polyreactivity
2 | QVQLVESGGGLVQAGGSLRLSCAASGSTFGAYAMGWYRQAPGKERELVAAINRGTSTNYADSVKGRFTISRDNAKNTVYLQMNSLKPEDTAVYYCAVAVLPWQLYSESYAEYDYWGQGTQVTVSS | low polyreactivity
3 | QVQLVESGGGLVQAGGSLRLSCAASGSTFGAYVMGWSRQAPGKERELVAGITYSGGTTYYAYSVKGRFTISRDNSKNTVYLQMNILKPEDTAVYYCNVSQHYSRRLKKWQMDYWGQGTQVTVSS | high polyreactivity
4 | QVQLVESGGGLVQAGGSLRLSCAASGSTFGDNAMGWYRQAPGKEREFVATISWDTATTYYADSVKARFTISRDNAKNTVYLQMNSLKPEDTAVYYCAARATAYYTVPSYADVDYWGQGTQVTVSS | low polyreactivity
5 | QVQLVESGGGLVQAGGSLRLSCAASGSTFGDNAMGWYRQAPGKERELVARISSGGNTYYADSVKGRFTISRDNAKNTVYLQMNSLKPEFTAVYYCAADIIVRYKKFPYYYWGQGTQVNVSS | high polyreactivity
6 | QVQLVESGGGLVQAGGSLRLSCAASGSTFGDYAMGWYRQAPGKERELVAAISRSAGSTYYADSVKGRFTISRDNAKNTVYLQMNSLKPEDTAVYYCAAEYQYHWAYIYYYWGQGTQVTVSS | high polyreactivity
7 | QVQLVESGGGLVQAGGSLRLSCAASGSTFGDYAMGWYRQGPGKERELVASINQNGGDTYYADSVKGRFTISRDNAKNTVYLQMNSLKPEDTAVYYCAAEAGYYFQTVAIDMGYWGQGTQVTVSS | low polyreactivity
8 | QVQLVESGGGLVQAGGSLRLSCAASGSTFGEYAMGWYRQAPGKERELVAAISWSGDTTYYADSVKGRFTISRDNAKNTVYLQMNSLKPEDTAVYYCAARDYDRVGEDYWGQGTQVTVSS | low polyreactivity
9 | QVQLVESGGGLVQAGGSLRLSCAASGSTFGFNAMGWYRQAPGKERELVAAITKSGGSTYYADSVKGRFTISRDNAKNTVYLQMNSLKPEDTAVYYCAARRSGRKYDYWGQGTQVTVSS | high polyreactivity
10 | QVQLVESGGGLVQAGGSLRLSCAASGSTFGFNVMGWYRQAPGKERELVAVITSDGNTYYADSVKGRFTISRDNAKNTVYFQMNSLIPEDTAVYYCAVSELGTPYGYWGQGTQVTVSS | low polyreactivity
11 | QVQLVESGGGLVQAGGSLRLSCAASGSTFGFYAMGWYRQAPGKERELVAAITASGDSTYYADSVKGRFTISRDNAKNTVYLQMNSLKPEDTAVYYCNAVWRYYRKRRAGDFGYWGQGTQVTVSS | low polyreactivity
12 | QVQLVESGGGLVQAGGSLRLSCAASGSTFGFYAMGWYRQAPGKERELVAAITGGGSTNYADSVKGRFTISRDNAKNTVYLQMNSLNPEDTAVYYCAVVQRYWYPGIVPYDYWGQGTQVTVSS | high polyreactivity
13 | QVQLVESGGGLVQAGGSLRLSCAASGSTFGGNAMGWYRQAPGKERELVAAIDSGGGTNYADSVKGRFTISRDNAKNTVYLQMNSLKPEDTAVYYCNADWAVRSTQNSSSGHVYWGQGTQVTVSS | low polyreactivity
14 | QVQLVESGGGLVQAGGSLRLSCAASGSTFGGNAMGWYRQAPGKERELVAAITIGGRTNYADSVKGRFTISRDNAKNTVYLQMNSLKPEDTAVYYCAKDRDQWQDYWGQGTQVTVSS | low polyreactivity
15 | QVQLVESGGGLVQAGGSLRLSCAASGSTFGGNAMGWYRQAPGKERELVASISDGGRTNYADSVKGRFTISRDNAKNTVYLQMNSLKPEDTAVYYCAADYAPVAFDYWGQGTQVTVSS | low polyreactivity
16 | QVQLVESGGGLVQAGGSLRLSCAASGSTFGGNGMGWYRQAPGKKGSWVAAISWSGGSTYYADSVKGRFTISRDNAKNTVYLQMNSLKPEDTAVYYCAARTVYRGRAYDYWGQGTQVTVSS | high polyreactivity
17 | QVQLVESGGGLVQAGGSLRLSCAASGSTFGGNVMGWYRPAPGKERELVATISRSGGSTYYADSVKGRFTISRDNAKNTVYLQMNSLKPEDTAVYYCAARTLHYSPSTFYRYQYDYWGQGTQVTVSS | high polyreactivity
18 | QVQLVESGGGLVQAGGSLRLSCAASGSTFGGYAMGWYRQAPGKERELVAAISNGDRTNYADSVKGRFTISRDNAKNTVYLQMNSLKPEDTAVYYCATQPLTWSSYRWDWRAQFDHWGQGTQVTVSS | low polyreactivity
19 | QVQLVESGGGLVQAGGSLRLSCAASGSTFGGYAMGWYRQAPGKERELVAAITYSGGSTYYADSVKGRFTISRDNAKNTVYLQMNSLKPEVTAVYYCNADDDDALPWWWPYVLDVDYWGQGTQVTVSS | low polyreactivity
20 | QVQLVESGGGLVQAGGSLRLSCAASGSTFGGYVMGWYRQAPGKERELVAAIRRVGRTYYADSVKGRFTISRDNAKNTVYLQMNSLKPEDTAVYYCAKDNWVNYDDSHDSWGQGTQVTVSS | low polyreactivity
21 | QVQLVESGGGLVQAGGSLRLSCAASGSTFGHYAMGWYRPAPGKERELVAVISRSGARTYYADSVKGRYTISRDNAKNTVYLQMNSLKPEDTAVYYCNAGPYGGNPFDYWGQGTQVTVSS | high polyreactivity
22 | QVQLVESGGGLVQAGGSLRLSCAASGSTFGHYAMGWYRQAPGKERELVAAISWSGASTYYADSVKGRFTISRDNAKNTVYLQMNSLKPEDTAVYYCAAESYRQTYYVGDGYEDDYWGQGTQVTVSS | low polyreactivity

Row | Sequence | polyreactivity (PSR sort gate)
23 | QVQLVESGGGLVQAGGSLRLSCAASGSTFGHYGMGWYRQAPGKERELVAAISYSGGSTSYADSVKGRFTISRDNAKNTVYLQMNSLKPEDTAVYYCATVRKRRYDYWGQGTQVTVSS | low polyreactivity
24 | QVQLVESGGGLVQAGGSLRLSCAASGSTFGHYVMGWYRQATGKERELVAAISYNGGSTYYADSVKGRFTISRDNAKNTVYLQMNSLKPEDTAVYSCAARGSYSFYRRVDYWGQGTQVTVSS | high polyreactivity
25 | QVQLVESGGGLVQAGGSLRLSCAASGSTFGKYAMGWYRQAPGKERELVAAITTGGNTSYADSVKGRFTISRDNANNTVYLQMNSLKPEDTAVYYCNAKRSFRVDYWGQGTQVTVSS | low polyreactivity
26 | QVQLVESGGGLVQAGGSLRLSCAASGSTFGKYAMGWYRQAPGKERELVAAITTGGNTYYADSVKGRFTISRDNAKNSVYLQMNSLKPEDTAVYYCNAKRSFRVDYWGQGTQVTVSS | low polyreactivity
27 | QVQLVESGGGLVQAGGSLRLSCAASGSTFGKYAMGWYRQAPGKERELVATITVSGGNTNYADSVKGRFTISRDNAKNTVYLQMNSLKPEDTAVYYCAARNYVAGHKYIMNYWGQGTQVNVSS | low polyreactivity
28 | QVQLVESGGGLVQAGGSLRLSCAASGSTFGLNAMGWYRQAPGKERELVAAISYSDTTTYYADSVKGRFTISRDNAKNTVYLQMNSLKPEDTAVYYCAAEGDYAFLYDYWGQGTQVTVSS | high polyreactivity
29 | QVQLVESGGGLVQAGGSLRLSCAASGSTFGLYAMGWYIQAPGKERELVAAISSRGSRTYYADSVKGRFTISRDNAKNTVYLQLNSLIPEDTAVYYCNALYASSVRHKVTYDYWGQGTQVTVSS | high polyreactivity
30 | QVQLVESGGGLVQAGGSLRLSCAASGSTFGLYAMGWYRQAPGKERELVAAISYNTGRTYYADSVKGRFTISRDNAKNTVYLQMNSLKPEDTAVYYCAAEYFIWSYTRYEYWGQGTQVTVSS | high polyreactivity
31 | QVQLVESGGGLVQAGGSLRLSCAASGSTFGNNAMGWYRPAPGKERELVAGIRRSSNTYYADSVKGRFTISRDNAKNTVYLQMNSLKPEDTAVYCCNADNILYGSTLDYWGQGTQVTVSS | low polyreactivity
32 | QVQLVESGGGLVQAGGSLRLSCAASGSTFGNYAMGWYRQAPGKERELVAAISTSGGSTYYADSVKRRFTISRDNAKNTVYLQMNSLKPEDTAVYYCAKRLVRVRSRAVSDYYWGQGTQVTVSS | high polyreactivity
33 | QVQLVESGGGLVQAGGSLRLSCAASGSTFGNYAMGWYRQAPGKERELVAVITSAGSTYYADSVKGRFTISRDNAKNTVYLQMNSLKPDDTAVYYCNTGKHVRYYYWGQGTQVTVSS | low polyreactivity
34 | QVQLVESGGGLVQAGGSLRLSCAASGSTFGPNAMGWYRQAPGKERELVATITYSGGSTYYADSVKGRFTISRDNAKNTVYLQMNSLKPEDTAVYYCAAVYRYSRFTYGYWGQGTQVTVSS | high polyreactivity
35 | QVQLVESGGGLVQAGGSLRLSCAASGSTFGPNPMGWYRQAPGKERELVAAISRAGRTYYADSVKGRFTISRDNAKNTVYLQMNSLKPEDTAVYYCNAGRSYHWRAGGEYDYWGQGTQVTVSS | low polyreactivity
36 | QVQLVESGGGLVQAGGSLRLSCAASGSTFGPYAMGWYRQAPGKERELVAAISSGGSTYADSVKGRFTISRDNAKNTVYLQMNSLKPEDTAVYYCAKVHGRGVYSVEYDYWVQGTQVTVSS | low polyreactivity
37 | QVQLVESGGGLVQAGGSLRLSCAASGSTFGPYAMGWYRQAPGKERELVAGISYGGGTTFYADSVKGRFTISRDNAKNTVYLQMNSLKPEDTAVYYCAATYRPNRYLEGYWGQGTQVTVSS | high polyreactivity
38 | QVQLVESGGGLVQAGGSLRLSCAASGSTFGPYAMGWYRQAPGKERELVATINSSGSTNYADSVKGRFTISRDNAKNTVYLQMKSLKPEDTAVYYCATLHYYYWYDYWGQGTQVTVSS | low polyreactivity
39 | QVQLVESGGGLVQAGGSLRLSCAASGSTFGPYAMGWYRQAPGKERELVATISGSRSSTYYADSVKGRFTISRDNAKNTVYLQMNSLKPEDTAVYYCATDLYFDLRYDYWGQGTQVTVSS | low polyreactivity
40 | QVQLVESGGGLVQAGGSLRLSCAASGSTFGRNAMGWYRQAPGKERELVAAISWRSTRTYYADSVKGRFTISRDNAKNTVYLQMNSLKPEDTAVYYCAAAWRIWWYHRGEFDYWGQGTQVTVSS | high polyreactivity
41 | QVQLVESGGGLVQAGGSLRLSCAASGSTFGRNAMGWYRQAPGKERELVATITKSGGSTYYADSVKGRFTISRDNAKNTVYLQMNSLKPEDTAVYYCAKGVYYKVLRGGGDYWGQGTQVTVSS | high polyreactivity
42 | QVQLVESGGGLVQAGGSLRLSCAASGSTFGRNTMGWYRQAPGKERELVAAITSGDTTTYADSVKGRFTISRDNAKNTVYLQMNSLKPEVTAVYYCAVDPVRGRDYSWMDYWGQGTQVTVSS | low polyreactivity
43 | QVQLVESGGGLVQAGGSLRLSCAASGSTFGRYAMGWYRQAPGKEREFVAAISCSGGSTYYADSVKGRFTISRDNAKNTVYLQMNSLNPEDTAVYYWARYSWRGLAEFESWGQGTQVTVSS | low polyreactivity
